Like-named read-outs stand apart in the source and are kept apart here. *1 amine or outer side, *2 acyl side, *3 side chain or, on linkers, in order; H or OH if unused. Bridges are numbered along the chain shown (N, C = ends). Primed or numbered codes have the meaning given here. Where no end group is shown, it is not given here. Side-chain parts run from the residue outwards. [ ]: non-standard residue; d: D form. The star is where a group is joined. dpeg″ = spacer —[CO(CH2)O(CH2)2O(CH2)NH]—, O=C(COCCOCN[*:1])[*:2]; dpeg = —[CO(CH2)O(CH2)2O(CH2)NH]— spacer, O=C(COCCOCN[*:1])[*:2]; C20 diacid = O=C(O)CCCCCCCCCCCCCCCCCCC(=O)*; γGlu = O=C(O)[C@H](CCC(=O)[*:2])N[*:1]; Aib = CC(C)(N)C(=O)O
T1: hGIPR (human, UniProt P48546 22-466)
T1 sequence (looked up): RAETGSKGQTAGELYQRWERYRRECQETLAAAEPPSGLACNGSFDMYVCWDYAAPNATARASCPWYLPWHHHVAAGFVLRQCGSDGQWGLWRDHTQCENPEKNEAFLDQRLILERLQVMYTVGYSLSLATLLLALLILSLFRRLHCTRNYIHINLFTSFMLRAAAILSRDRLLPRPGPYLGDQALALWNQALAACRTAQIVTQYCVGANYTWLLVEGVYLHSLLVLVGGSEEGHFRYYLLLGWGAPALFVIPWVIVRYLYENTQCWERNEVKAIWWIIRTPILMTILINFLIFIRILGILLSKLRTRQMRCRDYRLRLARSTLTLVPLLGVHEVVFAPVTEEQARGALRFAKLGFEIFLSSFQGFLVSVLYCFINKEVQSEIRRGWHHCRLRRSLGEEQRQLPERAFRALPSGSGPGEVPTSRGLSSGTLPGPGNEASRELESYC

B1: Compound A39 (peptide)
peptide: YSHGTFTSDYSKYLD[Aib]KYAKK([γGlu-γGlu-dpeg″-C20 diacid])FVKWLEEEPSSGAPPPS-OH
modifications: lactam 24-28; N-terminus assumed
SMILES: CC(C)C[C@@H]1NC(=O)[C@H](Cc2c[nH]c3ccccc23)NC(=O)[C@@H](NC(=O)[C@@H](NC(=O)[C@H](Cc2ccccc2)NC(=O)[C@H](CCCCNC(=O)CC[C@H](NC(=O)CC[C@H](NC(=O)COCCOCNC(=O)CCCCCCCCCCCCCCCCCCC(=O)O)C(=O)O)C(=O)O)NC(=O)[C@H](CCCCN)NC(=O)[C@H](C)NC(=O)[C@H](Cc2ccc(O)cc2)NC(=O)[C@H](CCCCN)NC(=O)C(C)(C)NC(=O)[C@H](CC(=O)O)NC(=O)[C@H](CC(C)C)NC(=O)[C@H](Cc2ccc(O)cc2)NC(=O)[C@H](CCCCN)NC(=O)[C@H](CO)NC(=O)[C@H](Cc2ccc(O)cc2)NC(=O)[C@H](CC(=O)O)NC(=O)[C@H](CO)NC(=O)[C@@H](NC(=O)[C@H](Cc2ccccc2)NC(=O)[C@@H](NC(=O)CNC(=O)[C@H](Cc2c[nH]cn2)NC(=O)[C@H](CO)NC(=O)[C@@H](N)Cc2ccc(O)cc2)[C@@H](C)O)[C@@H](C)O)C(C)C)CCCCNC(=O)CC[C@@H](C(=O)N[C@@H](CCC(=O)O)C(=O)N2CCC[C@H]2C(=O)N[C@@H](CO)C(=O)N[C@@H](CO)C(=O)NCC(=O)N[C@@H](C)C(=O)N2CCC[C@H]2C(=O)N2CCC[C@H]2C(=O)N2CCC[C@H]2C(=O)N[C@@H](CO)C(=O)O)NC(=O)[C@H](CCC(=O)O)NC1=O
B2: Compound A38 (peptide)
peptide: YSHGTFTSDYSKYLD[Aib]KYAEK([γGlu-γGlu-dpeg″-C20 diacid])FVKWLEEEPSSGAPPPS-OH
modifications: lactam 24-28; N-terminus assumed
SMILES: CC(C)C[C@@H]1NC(=O)[C@H](Cc2c[nH]c3ccccc23)NC(=O)[C@@H](NC(=O)[C@@H](NC(=O)[C@H](Cc2ccccc2)NC(=O)[C@H](CCCCNC(=O)CC[C@H](NC(=O)CC[C@H](NC(=O)COCCOCNC(=O)CCCCCCCCCCCCCCCCCCC(=O)O)C(=O)O)C(=O)O)NC(=O)[C@H](CCC(=O)O)NC(=O)[C@H](C)NC(=O)[C@H](Cc2ccc(O)cc2)NC(=O)[C@H](CCCCN)NC(=O)C(C)(C)NC(=O)[C@H](CC(=O)O)NC(=O)[C@H](CC(C)C)NC(=O)[C@H](Cc2ccc(O)cc2)NC(=O)[C@H](CCCCN)NC(=O)[C@H](CO)NC(=O)[C@H](Cc2ccc(O)cc2)NC(=O)[C@H](CC(=O)O)NC(=O)[C@H](CO)NC(=O)[C@@H](NC(=O)[C@H](Cc2ccccc2)NC(=O)[C@@H](NC(=O)CNC(=O)[C@H](Cc2c[nH]cn2)NC(=O)[C@H](CO)NC(=O)[C@@H](N)Cc2ccc(O)cc2)[C@@H](C)O)[C@@H](C)O)C(C)C)CCCCNC(=O)CC[C@@H](C(=O)N[C@@H](CCC(=O)O)C(=O)N2CCC[C@H]2C(=O)N[C@@H](CO)C(=O)N[C@@H](CO)C(=O)NCC(=O)N[C@@H](C)C(=O)N2CCC[C@H]2C(=O)N2CCC[C@H]2C(=O)N2CCC[C@H]2C(=O)N[C@@H](CO)C(=O)O)NC(=O)[C@H](CCC(=O)O)NC1=O

Tests used:
Assay in all cases: cell-based or functional assay
[1] = target: T2, human Glucagon receptor (GCGR) (human, UniProt P47871 26-477)
[2] = target: T3, human GLP-1 receptor (GLP-1R) (human, UniProt P43220 24-463)
T3 sequence (P43220 24-463): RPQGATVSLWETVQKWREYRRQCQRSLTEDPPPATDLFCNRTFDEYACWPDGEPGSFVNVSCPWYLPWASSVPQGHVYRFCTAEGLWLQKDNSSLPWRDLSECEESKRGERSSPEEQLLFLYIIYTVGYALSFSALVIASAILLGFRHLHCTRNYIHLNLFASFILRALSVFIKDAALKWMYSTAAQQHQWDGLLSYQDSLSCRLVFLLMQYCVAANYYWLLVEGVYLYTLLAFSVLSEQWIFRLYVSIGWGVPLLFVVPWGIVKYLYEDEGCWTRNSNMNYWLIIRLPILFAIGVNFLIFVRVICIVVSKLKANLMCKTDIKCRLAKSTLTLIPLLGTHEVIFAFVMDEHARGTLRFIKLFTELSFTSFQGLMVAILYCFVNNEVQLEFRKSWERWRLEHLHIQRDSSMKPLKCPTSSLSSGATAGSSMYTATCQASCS

[3] = target: T2, human Glucagon receptor (GCGR); remark: listed apart in the source
[4] = target: cynomolgus monkey Glucagon receptor (GCGR) (cynomolgus monkey)
[5] = target: rat Glucagon receptor (GCGR) (rat, UniProt P30082 27-485)
Sequence of rat Glucagon receptor (GCGR) (P30082 27-485): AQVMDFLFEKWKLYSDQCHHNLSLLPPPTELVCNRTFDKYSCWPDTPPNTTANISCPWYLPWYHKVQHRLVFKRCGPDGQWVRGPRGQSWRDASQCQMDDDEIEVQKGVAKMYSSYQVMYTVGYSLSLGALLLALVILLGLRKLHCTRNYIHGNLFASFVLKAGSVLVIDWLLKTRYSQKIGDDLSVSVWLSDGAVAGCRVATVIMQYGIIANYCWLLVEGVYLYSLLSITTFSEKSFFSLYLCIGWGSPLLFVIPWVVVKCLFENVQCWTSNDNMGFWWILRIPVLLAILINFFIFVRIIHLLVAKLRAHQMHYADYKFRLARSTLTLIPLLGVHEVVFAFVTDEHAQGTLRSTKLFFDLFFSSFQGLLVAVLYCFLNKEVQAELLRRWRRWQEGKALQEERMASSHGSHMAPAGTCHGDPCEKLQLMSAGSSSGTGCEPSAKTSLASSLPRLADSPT

[6] = target: T3, human GLP-1 receptor (GLP-1R); remark: listed apart in the source
[7] = target: T1, hGIPR

Row | Binder | pEC50, cAMP accumulation [1] | pEC50, cAMP accumulation [2] | pEC50, cAMP accumulation [3] | pEC50, cAMP accumulation [4] | pEC50, cAMP accumulation [5] | pEC50, cAMP accumulation [6] | pEC50, cAMP accumulation [7]
1 | B1 | 11.7 pEC50 (-log M) | < 9 pEC50 (-log M) | – | – | – | – | –
2 | YSHGTFTSDYSKYLD[Aib]KYAQK([γGlu-γGlu-dpeg-C20 diacid])FV[Aib]WLEDEPSSGAPPPS-OH [Compound A6] | 12.2 pEC50 (-log M) | < 7 pEC50 (-log M) | 12.2 pEC50 (-log M) | 9.77 pEC50 (-log M) | 10.3 pEC50 (-log M) | < 7 pEC50 (-log M) | < 9 pEC50 (-log M)
3 | Ac-YSHGTFTSDYSKYLDK([γGlu-γGlu-dpeg″-C20 diacid])KYAEKFVKWLEDEPSSGAPPPS-OH (lactam 20-24) [Compound A37] | 11.5 pEC50 (-log M) | < 9 pEC50 (-log M) | – | – | – | – | –
4 | B2 | 11.4 pEC50 (-log M) | < 9 pEC50 (-log M) | – | – | – | – | –
5 | YSHGTFTSDYSKYLDK([γGlu-γGlu-dpeg-C20 diacid])KYAQEF[Aib]QWLEDEPSSGAPPPS-OH [Compound A7] | 10.7 pEC50 (-log M) | < 9 pEC50 (-log M) | – | – | – | – | –
